According to patent US20210246166A1 (Bayer, published 2021):
Bridge positions count the residues as written; N and C are the ends. Square brackets hold non-standard residues; d marks the D form. Ends that are not written are not given here. Oic = O=C(O)[C@@H]1C[C@@H]2CCCC[C@@H]2N1; tBuAla = CC(C)(C)C[C@H](N)C(=O)O; Abu(4-CN) = N#CCC[C@H](N)C(=O)O; Aad = N[C@@H](CCCC(=O)O)C(=O)O; Pen = CC(C)(S)[C@H](N)C(=O)O; Phg = N[C@H](C(=O)O)c1ccccc1; Tranexamic = tranexamic acid; NMeC = CN[C@@H](CS)C(=O)O; NPhGly = O=C(O)CNc1ccccc1; Abu = CC[C@H](N)C(=O)O; PEG2 = NCCOCCOCCC(=O)O; βAla = NCCC(=O)O; Sar = CNCC(=O)O

B1: Example 310: ((N-Me)G)-I-(Pen)+SRS-((tBu)A)-PPI-C+IP-NH2 (peptide)
peptide: [Sar]I[Pen]SRS[tBuAla]PPICIP-NH2
modifications: disulfide 3-11; N-terminus assumed
SMILES: CC[C@H](C)[C@H](NC(=O)CNC)C(=O)N[C@@H]1C(=O)N[C@@H](CO)C(=O)N[C@@H](CCCNC(=N)N)C(=O)N[C@@H](CO)C(=O)N[C@@H](CC(C)(C)C)C(=O)N2CCC[C@H]2C(=O)N2CCC[C@H]2C(=O)N[C@@H]([C@@H](C)CC)C(=O)N[C@H](C(=O)N[C@H](C(=O)N2CCC[C@H]2C(N)=O)[C@@H](C)CC)CSSC1(C)C
B2: Example 312: ((N-Me)G)-IC+SRSLPPIC+IPd-OH (peptide)
peptide: [Sar]ICSRSLPPICIP[dD]-OH
modifications: disulfide 3-11; N-terminus assumed
SMILES: CC[C@H](C)[C@H](NC(=O)CNC)C(=O)N[C@H]1CSSC[C@@H](C(=O)N[C@H](C(=O)N2CCC[C@H]2C(=O)N[C@H](CC(=O)O)C(=O)O)[C@@H](C)CC)NC(=O)[C@H]([C@@H](C)CC)NC(=O)[C@@H]2CCCN2C(=O)[C@@H]2CCCN2C(=O)[C@H](CC(C)C)NC(=O)[C@H](CO)NC(=O)[C@H](CCCNC(=N)N)NC(=O)[C@H](CO)NC1=O
B3: Example 314: AIC+SRS-(AAD)-PP-I-((N-Me)C)+IPD-NH2 (peptide)
peptide: AICSRS[Aad]PPI[NMeC]IPD-NH2
modifications: disulfide 3-11; N-terminus assumed
SMILES: CC[C@H](C)[C@H](NC(=O)[C@H](C)N)C(=O)N[C@H]1CSSC[C@@H](C(=O)N[C@H](C(=O)N2CCC[C@H]2C(=O)N[C@@H](CC(=O)O)C(N)=O)[C@@H](C)CC)N(C)C(=O)[C@H]([C@@H](C)CC)NC(=O)[C@@H]2CCCN2C(=O)[C@@H]2CCCN2C(=O)[C@H](CCCC(=O)O)NC(=O)[C@H](CO)NC(=O)[C@H](CCCNC(=N)N)NC(=O)[C@H](CO)NC1=O
B4: Example 316: IC+SRS-((tBu)A)-PPI-(Pen)+IP-NH2 (peptide)
peptide: ICSRS[tBuAla]PPI[Pen]IP-NH2
modifications: disulfide 2-10; N-terminus assumed
SMILES: CC[C@H](C)[C@H](N)C(=O)N[C@H]1CSSC(C)(C)[C@@H](C(=O)N[C@H](C(=O)N2CCC[C@H]2C(N)=O)[C@@H](C)CC)NC(=O)[C@H]([C@@H](C)CC)NC(=O)[C@@H]2CCCN2C(=O)[C@@H]2CCCN2C(=O)[C@H](CC(C)(C)C)NC(=O)[C@H](CO)NC(=O)[C@H](CCCNC(=N)N)NC(=O)[C@H](CO)NC1=O
B5: Example 320: (PEG1(10 atoms))-AIC+SRS-((tBu)A)-PPI-(Pen)+IPD-NH2 (peptide)
peptide: [PEG2]AICSRS[tBuAla]PPI[Pen]IPD-NH2
modifications: disulfide 4-12; N-terminus assumed
SMILES: CC[C@H](C)[C@H](NC(=O)[C@H](C)NC(=O)CCOCCOCCN)C(=O)N[C@H]1CSSC(C)(C)[C@@H](C(=O)N[C@H](C(=O)N2CCC[C@H]2C(=O)N[C@@H](CC(=O)O)C(N)=O)[C@@H](C)CC)NC(=O)[C@H]([C@@H](C)CC)NC(=O)[C@@H]2CCCN2C(=O)[C@@H]2CCCN2C(=O)[C@H](CC(C)(C)C)NC(=O)[C@H](CO)NC(=O)[C@H](CCCNC(=N)N)NC(=O)[C@H](CO)NC1=O
B6: Example 317: ((N-Me)G)-IC+SRSLPPIC+ID-NH2 (peptide)
peptide: [Sar]ICSRSLPPICID-NH2
modifications: disulfide 3-11; N-terminus assumed
SMILES: CC[C@H](C)[C@H](NC(=O)CNC)C(=O)N[C@H]1CSSC[C@@H](C(=O)N[C@H](C(=O)N[C@@H](CC(=O)O)C(N)=O)[C@@H](C)CC)NC(=O)[C@H]([C@@H](C)CC)NC(=O)[C@@H]2CCCN2C(=O)[C@@H]2CCCN2C(=O)[C@H](CC(C)C)NC(=O)[C@H](CO)NC(=O)[C@H](CCCNC(=N)N)NC(=O)[C@H](CO)NC1=O
B7: Example 313: ((N-Me)G)-IC+SRSLPPIC+I-(Abu)-D-OH (peptide)
peptide: [Sar]ICSRSLPPICI[Abu]D-OH
modifications: disulfide 3-11; N-terminus assumed
SMILES: CC[C@H](NC(=O)[C@@H](NC(=O)[C@@H]1CSSC[C@H](NC(=O)[C@@H](NC(=O)CNC)[C@@H](C)CC)C(=O)N[C@@H](CO)C(=O)N[C@@H](CCCNC(=N)N)C(=O)N[C@@H](CO)C(=O)N[C@@H](CC(C)C)C(=O)N2CCC[C@H]2C(=O)N2CCC[C@H]2C(=O)N[C@@H]([C@@H](C)CC)C(=O)N1)[C@@H](C)CC)C(=O)N[C@@H](CC(=O)O)C(=O)O
B8: Example 323: GIC+SRSLP-(Oic)-IC+IPD-OH (peptide)
peptide: GICSRSLP[Oic]ICIPD-OH
modifications: disulfide 3-11; N-terminus assumed
SMILES: CC[C@H](C)[C@H](NC(=O)CN)C(=O)N[C@H]1CSSC[C@@H](C(=O)N[C@H](C(=O)N2CCC[C@H]2C(=O)N[C@@H](CC(=O)O)C(=O)O)[C@@H](C)CC)NC(=O)[C@H]([C@@H](C)CC)NC(=O)[C@@H]2C[C@@H]3CCCC[C@@H]3N2C(=O)[C@@H]2CCCN2C(=O)[C@H](CC(C)C)NC(=O)[C@H](CO)NC(=O)[C@H](CCCNC(=N)N)NC(=O)[C@H](CO)NC1=O
B9: Example 325: ((N-Me)G)-IC+SRSLPPIC+(Phg)-PD-OH (peptide)
peptide: [Sar]ICSRSLPPIC[Phg]PD-OH
modifications: disulfide 3-11; N-terminus assumed
SMILES: CC[C@H](C)[C@H](NC(=O)CNC)C(=O)N[C@H]1CSSC[C@@H](C(=O)N[C@H](C(=O)N2CCC[C@H]2C(=O)N[C@@H](CC(=O)O)C(=O)O)c2ccccc2)NC(=O)[C@H]([C@@H](C)CC)NC(=O)[C@@H]2CCCN2C(=O)[C@@H]2CCCN2C(=O)[C@H](CC(C)C)NC(=O)[C@H](CO)NC(=O)[C@H](CCCNC(=N)N)NC(=O)[C@H](CO)NC1=O
B10: Example 321: ((N-Me)G)-IC+SRS-(Cnba)-PPI-(Pen)+IPD-NH2 (peptide)
peptide: [Sar]ICSRS[Abu(4-CN)]PPI[Pen]IPD-NH2
modifications: disulfide 3-11; N-terminus assumed
SMILES: CC[C@H](C)[C@H](NC(=O)CNC)C(=O)N[C@H]1CSSC(C)(C)[C@@H](C(=O)N[C@H](C(=O)N2CCC[C@H]2C(=O)N[C@@H](CC(=O)O)C(N)=O)[C@@H](C)CC)NC(=O)[C@H]([C@@H](C)CC)NC(=O)[C@@H]2CCCN2C(=O)[C@@H]2CCCN2C(=O)[C@H](CCC#N)NC(=O)[C@H](CO)NC(=O)[C@H](CCCNC(=N)N)NC(=O)[C@H](CO)NC1=O
B11: Example 306: (beta-A)-IC+SRSLPPIC+IPD-OH (peptide)
peptide: [βAla]ICSRSLPPICIPD-OH
modifications: disulfide 3-11; N-terminus assumed
SMILES: CC[C@H](C)[C@H](NC(=O)CCN)C(=O)N[C@H]1CSSC[C@@H](C(=O)N[C@H](C(=O)N2CCC[C@H]2C(=O)N[C@@H](CC(=O)O)C(=O)O)[C@@H](C)CC)NC(=O)[C@H]([C@@H](C)CC)NC(=O)[C@@H]2CCCN2C(=O)[C@@H]2CCCN2C(=O)[C@H](CC(C)C)NC(=O)[C@H](CO)NC(=O)[C@H](CCCNC(=N)N)NC(=O)[C@H](CO)NC1=O
B12: Example 322: ((tBu)A)-GIC+SRSLP-(Oic)-I-(Pen)+IP-NH2 (peptide)
peptide: [tBuAla]GICSRSLP[Oic]I[Pen]IP-NH2
modifications: disulfide 4-12; N-terminus assumed
SMILES: CC[C@H](C)[C@H](NC(=O)CNC(=O)[C@@H](N)CC(C)(C)C)C(=O)N[C@H]1CSSC(C)(C)[C@@H](C(=O)N[C@H](C(=O)N2CCC[C@H]2C(N)=O)[C@@H](C)CC)NC(=O)[C@H]([C@@H](C)CC)NC(=O)[C@@H]2C[C@@H]3CCCC[C@@H]3N2C(=O)[C@@H]2CCCN2C(=O)[C@H](CC(C)C)NC(=O)[C@H](CO)NC(=O)[C@H](CCCNC(=N)N)NC(=O)[C@H](CO)NC1=O
B13: Example 311: ((N-Ph)G)-IC+SRS-((tBu)A)-PPI-(Pen)+IP-NH2 (peptide)
peptide: [NPhGly]ICSRS[tBuAla]PPI[Pen]IP-NH2
modifications: disulfide 3-11; N-terminus assumed
SMILES: CC[C@H](C)[C@H](NC(=O)CNc1ccccc1)C(=O)N[C@H]1CSSC(C)(C)[C@@H](C(=O)N[C@H](C(=O)N2CCC[C@H]2C(N)=O)[C@@H](C)CC)NC(=O)[C@H]([C@@H](C)CC)NC(=O)[C@@H]2CCCN2C(=O)[C@@H]2CCCN2C(=O)[C@H](CC(C)(C)C)NC(=O)[C@H](CO)NC(=O)[C@H](CCCNC(=N)N)NC(=O)[C@H](CO)NC1=O

Each binder was assayed against recombinant human MASP2 active protease (amino acids 297-686, C-terminal His Tag) (human, UniProt O00187 297-686) (assay: cell-based or functional assay).
Chain of recombinant human MASP2 active protease (amino acids 297-686, C-terminal His Tag) (O00187 other isoform, or with tags, fused parts or gaps limits assumed): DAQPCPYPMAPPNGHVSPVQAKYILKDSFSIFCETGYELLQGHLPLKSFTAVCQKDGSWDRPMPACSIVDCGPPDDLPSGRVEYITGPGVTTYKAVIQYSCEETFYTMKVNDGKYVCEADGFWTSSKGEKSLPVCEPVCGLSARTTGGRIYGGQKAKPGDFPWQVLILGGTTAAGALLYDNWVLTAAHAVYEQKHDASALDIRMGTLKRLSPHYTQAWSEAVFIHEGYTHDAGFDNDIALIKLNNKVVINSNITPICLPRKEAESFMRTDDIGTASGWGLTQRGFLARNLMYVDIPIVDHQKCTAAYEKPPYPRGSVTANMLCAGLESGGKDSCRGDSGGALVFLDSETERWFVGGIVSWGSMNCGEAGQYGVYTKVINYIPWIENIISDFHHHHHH

Row | Binder | human MASP2 IC50 [nM]
1 | [Sar]ICSRSLP[(1R,3S,5R)‑2‑Azabicyclo(3.1.0)hexane‑3‑carboxylic acid]ICIPD-OH (disulfide 3-11) [Example 324: ((N-Me)G)-IC+SRSLP-((1R,3S,5R)-2-Azabicyclo[3.1.0]hexane-3-carboxylic acid)-IC+IPD-OH] | 72
2 | B1 | 3000
3 | B2 | 530
4 | B3 | 260
5 | B4 | 660
6 | B5 | 190
7 | B6 | 210
8 | B7 | 250
9 | B8 | 560
10 | [Tranexamic]ICSRS[tBuAla]PPI[NMeC]IPD-NH2 (disulfide 3-11) [Example 319: (Tranexamic)-IC+SRS-((tBu)A)-PPI-((N-Me)C)+IPD-NH2] | 18
11 | [Sar]ICSRSLPPICIPD-OH (disulfide 3-11; also: HCl salt) [Example 318: ((N-Me)G)-IC+SRSLPPIC+IPD-OH (HCl- Salt)] | 610
12 | B9 | 450
13 | B10 | 1800
14 | B11 | 450
15 | B12 | 150
16 | B13 | 49

Each binder was assayed against T1, recombinant human MASP1 active protease (amino acids 297-699, C-terminal His Tag) (human, UniProt P48740 297-699) (assay: cell-based or functional assay).
T1 sequence: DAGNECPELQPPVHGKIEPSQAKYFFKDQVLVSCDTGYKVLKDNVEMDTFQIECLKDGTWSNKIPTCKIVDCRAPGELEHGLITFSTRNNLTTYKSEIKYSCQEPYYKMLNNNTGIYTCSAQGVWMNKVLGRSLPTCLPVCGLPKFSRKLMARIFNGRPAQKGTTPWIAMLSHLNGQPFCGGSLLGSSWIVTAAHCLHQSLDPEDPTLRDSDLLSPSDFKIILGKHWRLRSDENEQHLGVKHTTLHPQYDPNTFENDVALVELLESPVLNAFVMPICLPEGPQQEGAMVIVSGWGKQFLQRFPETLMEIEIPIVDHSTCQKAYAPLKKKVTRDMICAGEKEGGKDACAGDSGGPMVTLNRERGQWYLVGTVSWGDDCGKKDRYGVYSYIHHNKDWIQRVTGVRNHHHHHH

Row | Binder | human MASP1 IC50 [nM]
17 | [Sar]ICSRSLP[(1R,3S,5R)‑2‑Azabicyclo(3.1.0)hexane‑3‑carboxylic acid]ICIPD-OH (disulfide 3-11) [Example 324: ((N-Me)G)-IC+SRSLP-((1R,3S,5R)-2-Azabicyclo[3.1.0]hexane-3-carboxylic acid)-IC+IPD-OH] | 23
18 | B1 | 20
19 | B2 | 21
20 | B3 | 21
21 | B4 | 21
22 | B5 | 22
23 | B6 | 22
24 | B7 | 21
25 | B8 | 6.96
26 | [Tranexamic]ICSRS[tBuAla]PPI[NMeC]IPD-NH2 (disulfide 3-11) [Example 319: (Tranexamic)-IC+SRS-((tBu)A)-PPI-((N-Me)C)+IPD-NH2] | 22
27 | [Sar]ICSRSLPPICIPD-OH (disulfide 3-11; also: HCl salt) [Example 318: ((N-Me)G)-IC+SRSLPPIC+IPD-OH (HCl- Salt)] | 22
28 | B9 | 23
29 | B10 | 22
30 | B11 | 20
31 | B12 | 22
32 | B13 | 20
